Source: the supplement of paper PMC7877785
± gives the uncertainty stated by the source.

Test: self-splicing fitness, log relative to wild type (ln ratio); higher = more splicing; Tetrahymena group I intron in knt gene, E. coli kanamycin selection, DiMSum; sequences stand for … in CUCUCU…GGAGGGAAAAGUUAUCAGGCAUGCACCUGGUAGCUAGUCUUUAAACCAAUAGAUUGCAUCGGUUUAAAAGGCAAGACCGUCAAAUUGCGGGAAAGGGGUCAACAGCCGUUCAGUACCAAGUCUCAGGGGAAACUUUGAGAUGGCCUUGCAAAGGGUAUGGUAAUAAGCUGACGGACAUGGUCCUAACCACGCAGCCAAGUCCUAAGUCAACAGAUCUUCUGUUGAUAUGGAUGCAGUUCACAGACUAAAUGUCGGUCGGGGAAGAUGUAUUCUUCUCAUAAGAUAUAGUCGGACCUCUCCUUAAUGGGAGCUAGCGGAUGAAGUGAUGCAACACUGGAGCCGCUGGGAACUAAUUUGUAUGCGAAAGUAUAUUGAUUAGUUUUGGAGUACUCGUGGUCG
Procedure, shortened: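 Colonies from six replicate transformations of E. coli BL21(DE3) were pooled and amplicon-sequenced on an Illumina HiSeq 2500. The library placed an intron with all eight P1ex-region nucleotides randomised inside the knt kanamycin-resistance gene on pET-22b(+), and cells grew overnight at 37°C or 30°C on LB agar with or without 25 μg/mL kanamycin (plus 100 μg/mL carbenicillin, 50 μM IPTG, 0.2% rhamnose). Fitness is the DiMSum error-weighted combination of wild-type-normalised replicate fold changes, kanamycin versus none.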

Sequence	self-splicing fitness (ln) (30 °C)	self-splicing fitness (ln) (37 °C)
CACAAGCAAUAUUACGCUAC	-3.18 ± 0.19	-2.26 ± 0.18
CACAAGCAAUAUUACGGAGU	-3.2 ± 0.13	-2.64 ± 0.15
CACAAGCAAUAUUACGGCGU	-1.66 ± 0.088	-1.57 ± 0.099
CACAAGCAAUAUUACGGGAU	-3.51 ± 0.14	-1.41 ± 0.097
CACAAGCAAUAUUACGGGCC	-3.78 ± 0.33	-2.01 ± 0.29
CACAAGCAAUAUUACGGGUC	-3.43 ± 0.1	-2.2 ± 0.12
CACAAGCAAUAUUACGGUUC	-4.1 ± 0.22	-2.66 ± 0.19
CACAAGCAAUAUUACGUCAA	-3.14 ± 0.17	-2.6 ± 0.2
CACAAGCAAUAUUACGUCGC	-3.09 ± 0.11	-2.41 ± 0.17
CACAAGCAAUAUUACGUCGU	-3.56 ± 0.13	-1.96 ± 0.11
CACAAGCAAUAUUACGUCUC	-3.1 ± 0.25	-2.5 ± 0.22
CACAAGCAAUAUUACGUGAU	-4.03 ± 0.15	-2.5 ± 0.15
CACAAGCAAUAUUACGUUAG	-1.37 ± 0.052	-0.63 ± 0.062
CACAAGCAAUAUUACGUUGA	-3.84 ± 0.2	-1.64 ± 0.1
CACCAGCAAUAUUACGACAU	-3.726 ± 0.018	-2.66 ± 0.035
CACCAGCAAUAUUACGAGAA	-3.55 ± 0.43	-2.33 ± 0.28
CACCAGCAAUAUUACGAGGC	-2.98 ± 0.17	-2.46 ± 0.19
CACCAGCAAUAUUACGAUGA	-1.9 ± 0.091	-2 ± 0.099
CACCAGCAAUAUUACGAUUA	-2.82 ± 0.14	-1.26 ± 0.11
CACCAGCAAUAUUACGCAGC	-3.44 ± 0.16	-1.77 ± 0.12
CACCAGCAAUAUUACGCCGU	-2.65 ± 0.13	-2.55 ± 0.18
CACCAGCAAUAUUACGCUAU	-4.03 ± 0.16	-2.21 ± 0.13

Sequence	self-splicing fitness (ln) (30 °C)	self-splicing fitness (ln) (37 °C)
CACCAGCAAUAUUACGCUUC	-4.12 ± 0.34	-1.45 ± 0.13
CACCAGCAAUAUUACGGAAG	-0.975 ± 0.049	-0.0423 ± 0.072
CACCAGCAAUAUUACGGGAU	-3.34 ± 0.076	-1.9 ± 0.076
CACCAGCAAUAUUACGGGCC	-3.9 ± 0.19	-1.73 ± 0.14
CACCAGCAAUAUUACGGGGU	-4.29 ± 0.2	-3.49 ± 0.29
CACCAGCAAUAUUACGGUAC	-3.11 ± 0.11	-2.13 ± 0.1
CACCAGCAAUAUUACGGUGG	-2.71 ± 0.077	-1.59 ± 0.084
CACCAGCAAUAUUACGUGGU	-3.65 ± 0.1	-3.16 ± 0.14
CACCAGCAAUAUUACGUGUU	-4.11 ± 0.14	-2.67 ± 0.1
CACCAGCAAUAUUACGUUCC	-4.91 ± 0.41	-2.45 ± 0.26
CACGAGCAAUAUUACGAAUC	-3.87 ± 0.35	-2.93 ± 0.25
CACGAGCAAUAUUACGACAA	–	-2.44 ± 0.28
CACGAGCAAUAUUACGACCG	-0.0895 ± 0.089	0.125 ± 0.12
CACGAGCAAUAUUACGCACG	-2.13 ± 0.21	-1.15 ± 0.21
CACGAGCAAUAUUACGCAGG	-3.49 ± 0.21	-2.55 ± 0.2
CACGAGCAAUAUUACGCCGA	-2.35 ± 0.39	–
CACGAGCAAUAUUACGCCUG	-3.26 ± 0.23	-2.38 ± 0.17
CACGAGCAAUAUUACGCUAA	-2.95 ± 0.34	-2.75 ± 0.22
CACGAGCAAUAUUACGCUUG	-3.27 ± 0.34	-2.03 ± 0.47
CACGAGCAAUAUUACGGAUC	–	-2.84 ± 0.3
CACGAGCAAUAUUACGGCUU	-3.77 ± 0.24	-3.16 ± 0.29
